Reference: US10005846 (LIFEARC, dated 2018)

T1: human transglutaminase type 2 (TG2) (human, UniProt P21980 1-687)
T1 construct: Recombinant full-length human TG2 (Zedira; cat; T002 in the Biacore work); Also used here for the endogenous TG2 of HepG2 lysate and HK-2 cells; also called hTG2; rhTG2
T1 sequence: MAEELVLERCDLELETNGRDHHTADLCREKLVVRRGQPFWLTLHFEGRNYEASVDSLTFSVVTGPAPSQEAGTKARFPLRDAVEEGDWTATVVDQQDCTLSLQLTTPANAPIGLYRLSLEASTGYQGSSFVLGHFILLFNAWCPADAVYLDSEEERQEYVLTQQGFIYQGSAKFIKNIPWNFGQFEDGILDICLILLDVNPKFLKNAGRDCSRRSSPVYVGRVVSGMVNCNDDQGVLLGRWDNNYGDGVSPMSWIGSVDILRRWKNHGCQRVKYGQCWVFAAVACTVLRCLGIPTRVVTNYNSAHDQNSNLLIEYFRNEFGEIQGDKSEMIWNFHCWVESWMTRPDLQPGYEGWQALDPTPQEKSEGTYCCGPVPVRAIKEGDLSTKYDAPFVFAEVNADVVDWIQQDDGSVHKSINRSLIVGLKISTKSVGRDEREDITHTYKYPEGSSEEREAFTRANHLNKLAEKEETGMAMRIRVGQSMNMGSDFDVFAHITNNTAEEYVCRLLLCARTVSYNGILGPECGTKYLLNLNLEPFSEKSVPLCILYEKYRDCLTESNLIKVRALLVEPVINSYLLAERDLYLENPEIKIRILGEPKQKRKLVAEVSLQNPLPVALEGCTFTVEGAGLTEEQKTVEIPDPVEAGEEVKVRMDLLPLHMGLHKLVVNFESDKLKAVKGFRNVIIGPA

T2: cynomolgus monkey TG2 (cynomolgus monkey, UniProt A0A2K5VXI8 1-687)
T2 construct: Bought recombinant protein; also called cynomogulus monkey TG2; cyano TG2
T2 sequence: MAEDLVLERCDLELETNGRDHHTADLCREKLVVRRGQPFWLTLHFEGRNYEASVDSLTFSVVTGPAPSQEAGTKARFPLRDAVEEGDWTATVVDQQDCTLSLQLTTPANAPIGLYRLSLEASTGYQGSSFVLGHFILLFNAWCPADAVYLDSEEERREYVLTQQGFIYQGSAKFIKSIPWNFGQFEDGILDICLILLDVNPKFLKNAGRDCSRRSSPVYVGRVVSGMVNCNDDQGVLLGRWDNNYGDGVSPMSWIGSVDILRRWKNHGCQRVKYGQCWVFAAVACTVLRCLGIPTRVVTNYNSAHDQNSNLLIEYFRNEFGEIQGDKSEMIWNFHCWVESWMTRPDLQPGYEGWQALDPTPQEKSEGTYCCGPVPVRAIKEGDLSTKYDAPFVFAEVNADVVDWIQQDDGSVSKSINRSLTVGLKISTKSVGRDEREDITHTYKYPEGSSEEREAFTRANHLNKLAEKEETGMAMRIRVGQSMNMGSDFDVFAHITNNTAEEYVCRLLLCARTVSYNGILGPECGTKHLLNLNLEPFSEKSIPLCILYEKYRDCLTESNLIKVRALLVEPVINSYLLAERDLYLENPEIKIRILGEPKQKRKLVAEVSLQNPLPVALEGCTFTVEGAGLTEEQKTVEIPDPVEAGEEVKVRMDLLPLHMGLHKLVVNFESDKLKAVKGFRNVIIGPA

B1: cDH001 chimeric antibody (murine DH2 variable regions) (antibody, human IgG1, V domains shown)
VH: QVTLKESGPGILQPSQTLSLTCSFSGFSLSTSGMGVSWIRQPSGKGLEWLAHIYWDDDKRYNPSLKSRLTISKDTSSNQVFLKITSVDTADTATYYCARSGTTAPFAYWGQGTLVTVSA
VL: QIVLTQSPAIMSASPGEKVTMTCSASSSVSYMYWYQQKPGSSPRLLIYDTSNLASGVPVRFSGSGSGTSYSLTISRMEAEDAATFYCQQWSSSPLTFGAGTKLELK
B2: cDD9001 chimeric antibody (murine DD9 variable regions) (antibody, human IgG1, V domains shown)
VH: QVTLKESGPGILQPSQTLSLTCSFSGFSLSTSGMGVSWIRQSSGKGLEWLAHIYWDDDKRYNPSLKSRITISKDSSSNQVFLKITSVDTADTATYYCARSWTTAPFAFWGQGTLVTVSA
VL: QIVLTQSPAIMSASPGEKVTMTCSASSSVDYMYWYQQKPGSSPRLLIYDTSNLASGVPVRFSGSGSGTSYSLTISRMGAEDAATYYCQQWNSSPLTFGAGTKLELK
B3: cBB001 chimeric antibody (murine BB7 variable regions) (antibody, human IgG1, V domains shown)
VH: AVQLVESGGGLVKPGGSLKLSCAASGIIFSSSAMSWVRQTPEKRLEWVATISSGGRSTYYPDSVKGRFTVSRDSAKNTLYLQMDSLRSEDTAIYYCAKLISPYWGQGTTLTVSS
VL: AIKMTQSPSSMYASLGERVIITCKASQDINSYLTWFQQKPGKSPKTLIYLTNRLMDGVPSRFSGSGSGQEFLLTISGLEHEDMGIYYCLQYVDFPYTFGGGTKLEIK
notes: also called chimeric BB7

Tests used:
[1] = biological target: T1, human transglutaminase type 2 (TG2); experiment: SPR (Biacore T200), antibody captured on anti-human IgG1 Fc chip, TG2 injected; -Ca2+
Protocol: (§1) Recombinant cynomolgus monkey TG2 was obtained from Trenzyme. Surface plasmon resonance (SPR) was measured on a Biacore T200 instrument (GE Healthcare). CM5 chips (GE Healthcare cat. no.: BR-1006-68) were coated with monoclonal mouse anti-human IgG1 (Fc) (MAH) antibody (GE Healthcare cat. no.: BR-1008-39) by amine-coupling as described in the manufacturers instructions. HBS-EP+ buffer (0.01 M HEPES, 0.15 M NaCl, 3 mM EDTA, 0.05% v/v Surfactant P20) and HBS-P+ buffer (0.01 M HEPES, 0.15 M NaCl, 0.05% Surfactant P20) were purchased from GE Healthcare as 10× stocks (cat. nos.: BR-1006-69 and BR-1006-71). Calcium Chloride solution was obtained from Sigma Aldrich (cat. no.:21115).
(§2) The method employed to determine the affinity of the anti-TG2 antibodies involved the capture of the chimeric or humanised antibodies on a MAH coated CM5 chip, followed by the injection of a series of TG2 samples in running buffer. The running buffer was 1×HBS-P+ containing 1 mM CaCl_2, or 1×HBS-EP+ for calcium-free experiments. Antibody capture was carried out for a contact time of 120 seconds at a flow rate of 10 μl/min resulting in the capture of approximately 40-80 RU. TG2 was injected over the immobilised antibody at concentrations ranging from 25 nM to 400 nM with a contact time up to 600 seconds at a flow rate of 30 μl/min. Dissociation of TG2 was typically measured for up to 5400 seconds (1.5 hours). Regeneration of the chip was then performed using 3 M MgCl_2, for a contact time of 60 seconds at a flow rate of […], followed by a 300 s stabilisation period before the next sample. For each of human and cynomolgus monkey TG2, at least 5 injections at a variety of concentrations were performed in at least two separate experiments.
(§3) Kinetic data were exported from the Biacore T200 Evaluation Software and analysed using GraphPad Prism, where the association phases and dissociation phases were analysed separately using a one phase association model and one-phase exponential decay model respectively. Association rates ($kon$) were calculated for each curve individually, and dissociation rates ($koff$) values from the long dissociation phase data collected. Where $koff$ values were calculated to be $<1\times10^-5$ s^-1, values were set at 1×10^-5 for analysis, as rates slower than this could not be estimated accurately.

cynomolgus monkey TG2 = biological target: T2, cynomolgus monkey TG2; experiment: as above
Protocol: as §1, §2, §3

Row | Binder | Kd [1] [nM] | koff [1] [s⁻¹] | kon [1] [M⁻¹ s⁻¹] | Kd (cynomolgus monkey TG2) [nM] | koff (cynomolgus monkey TG2) [s⁻¹] | kon (cynomolgus monkey TG2) [M⁻¹ s⁻¹]
1 | B1 | 23 | 0.00049 | 21000 | 2.4 | 6.3e-05 | 26000
2 | B2 | 3.1 | 7.1e-05 | 23000 | 0.89 | 4.1e-05 | 46000
3 | B3 | < 0.07 | < 1e-05 | 150000 | < 0.05 | < 1e-05 | 190000
